Source: patent publication US20230212587A1, “Mutant Hydroxyphenylpyruvate Dioxygenase Polypeptide, Encoding Gene Thereof and Use Therefor” (Beijing Dabeinong Biotechnology Co., Ltd., priority 2019, published 2023)

B1: AtHPPDm-F372V: Arabidopsis thaliana HPPD mutant F372V, SEQ ID NO: 349 (protein)
chain: MGHQNAAVSENQNHDDGAASSPGFKLVGFSKFVRKNPKSDKFKVKRFHHIEFWCGDATNVARRFSWGLGMRFSAKSDLSTGNMVHASYLLTSGDLRFLFTAPYSPSLSAGEIKPTTTASIPSFDHGSCRSFFSSHGLGVRAVAIEVEDAESAFSISVANGAIPSSPPIVLNEAVTIAEVKLYGDVVLRYVSYKAEDTEKSEFLPGFERVEDASSFPLDYGIRRLDHAVGNVPELGPALTYVAGFTGFHQFAEFTADDVGTAESGLNSAVLASNDEMVLLPINEPVHGTKRKSQIQTYLEHNEGAGLQHLALMSEDIFRTLREMRKRSSIGGFDFMPSPPPTYYQNLKKRVGDVLSDDQIKECEELGILVDRDDQGTLLQIVTKPLGDRPTIFIEIIQRVGCMMKDEEGKAYQSGGCGGFGKGNFSELFKSIEEYEKTLEAKQLVG
modifications: AtHPPDm-F372V Amino Acid Sequence
B2: OsHPPDm-F372V: Oryza sativa HPPD mutant F372V, SEQ ID NO: 363 (protein)
chain: MPPTPTPTATTGAVSAAAAAGENAGFRLVGHRRFVRANPRSDRFQALAFHHVELWCADAASAAGRFAFALGAPLAARSDLSTGNSAHASLLLRSASVAFLFTAPYGGDHGVGADAATTASIPSFSPGAARRFAADHGLAVHAVALRVADAADAFRASVAAGARPAFQPADLGGGFGLAEVELYGDVVLRFVSHPDGADAPFLPGFEGVSNPGAVDYGLRRFDHVVGNVPELAPVAAYISGFTGFHEFAEFTAEDVGTAESGLNSVVLANNAETVLLPLNEPVHGTKRRSQIQTYLDHHGGPGVQHIALASDDVLGTLREMRARSAMGGFEFLAPPPPNYYDGVRRRAGDVLSEEQINECQELGVLVDRDDQGVLLQIVTKPVGDRPTFFLEMIQRIGCMEKDESGQEYQKGGCGGFGKGNFSELFKSIEEYEKSLEAKQAPTVQGS
modifications: OsHPPDm-F372V Amino Acid Sequence
B3: BdHPPDm-F372V: Brachypodium distachyon HPPD mutant F372V, SEQ ID NO: 355 (protein)
chain: MPPPATTAAPAAAAVTPEHARPPRRVARVNPRSDRFSALSFHHVELWCADAASAAGRFSFALGAPPAARSDLSTGNSAHASILLRSGSLAFLFTAPYAPSPASDSAASIPSFSASAARQFTADHGGLAVRAVALRVSSASDAFHASVSAGARPSFPPADLGQGFALAEVELYGDVVLRFISHPDENTEIPFLPGFESVSNPGASTYGLTRFDHVVGNVPSLAPVAAYIAGFTGFHEFAEFTAEDVGTADSGLNSVVLANNSERVLLPLNEPVHGTKRRSQIQTYLDHHGGPGVQHIALASDDVLRTLREMRARSAMGGFEFLAPPPPNYYDGVRRRAGDVLSEAQIKECQELGVLVDRDDQGVLLQIVTKPVGDRPTLFLEMIQRIGCMEKDEIGQEQQKGGCGGFGKGNFSELFRSIEEYEKSLEAKQSAVVQES
modifications: BdHPPDm-F372V Amino Acid Sequence
B4: SbHPPDm-F372V: Sorghum bicolor HPPD mutant F372V, SEQ ID NO: 361 (protein)
chain: MPPTPTTAAATGAAVAAASAEQAAFRLVGHRNFVRVNPRSDRFHTLAFHHVELWCADAASAAGRFSFGLGAPLAARSDLSTGNTAHASLLLRSGALAFLFTAPYAHGADAATASLPSFSAAEARRFAADHGLAVRAVALRVADAEDAFRASVAAGARPAFEPVELGLGFRLAEVELYGDVVLRYVSYPDDADASFLPGFVGVTSPGAADYGLRRFDHIVGNVPELAPAAAYFAGFTGFHEFAEFTAEDVGTTESGLNSMVLANNAENVLLPLNEPVHGTKRRSQIQTYLDHHGGPGVQHMALASDDVLRTLREMQARSAMGGFEFMAPPAPEYYDGVRRRAGDVLTEAQIKECQELGVLVDRDDQGVLLQIVTKPVGDRPTLFLEIIQRIGCMEKDEKGQEYQKGGCGGFGKGNFSQLFKSIEDYEKSLEAKQAAAAQGS
modifications: SbHPPDm-F372V Amino Acid Sequence
B5: HvHPPDm-F372V: Hordeum vulgare HPPD mutant F372V, SEQ ID NO: 357 (protein)
chain: MPPTPTTPAATGAAAAVTPEHARPHRMVRFNPRSDRFHTLSFHHVEFWCADAASAAGRFAFALGAPLAARSDLSTGNSAHASQLLRSGSLAFLFTAPYANGCDAATASLPSFSADAARRFSADHGIAVRSVALRVADAAEAFRASRRRGARPAFAPVDLGRGFAFAEVELYGDVVLRFVSHPDGTDVPFLPGFEGVTNPDAVDYGLTRFDHVVGNVPELAPAAAYIAGFTGFHEFAEFTAEDVGTTESGLNSVVLANNSEGVLLPLNEPVHGTKRRSQIQTFLEHHGGPGVQHIAVASSDVLRTLRKMRARSAMGGFDFLPPPLPKYYEGVRRLAGDVLSEAQIKECQELGVLVDRDDQGVLLQIVTKPVGDRPTLFLEMIQRIGCMEKDERGEEYQKGGCGGFGKGNFSELFKSIEDYEKSLEAKQSAAVQGS
modifications: HvHPPDm-F372V Amino Acid Sequence
B6: TaHPPDm-F372G: Triticum aestivum HPPD mutant F372G, SEQ ID NO: 301 (protein)
chain: MPPTPTTPAATGAGAAAAVTPEHARPRRMVRFNPRSDRFHTLSFHHVEFWCADAASAAGRFAFALGAPLAARSDLSTGNSVHASQLLRSGNLAFLFTAPYANGCDAATASLPSFSADAARRFSADHGLAVRSIALRVADAAEAFRASVDGGARPAFSPVDLGRGFGFAEVELYGDVVLRFVSHPDGTDVPFLPGFEGVSNPGAVDYGLTRFDHVVGNVPELASAAAYVAGFTGFHEFAEFTTEDVGTAESGLNSMVLANNSEGVLLPLNEPVHGTKRRSQIQTFLEHHGGPGVQHIAVASSDVLRTLREMRARSAMGGFDFLPPPLPKYYEGVRRIAGDVLSEAQIKECQELGVLVDRDDQGVLLQIGTKPVGDRPTLFLEMIQRIGCMEKDERGEEYQKGGCGGFGKGNFSELFKSIEDYEKSLEAKQSAAVQGS
modifications: TaHPPDm-F372G Amino Acid Sequence
B7: SiHPPDm-F372V: Setaria italica HPPD mutant F372V, SEQ ID NO: 359 (protein)
chain: MPPTPTPAAAAPGAAAAPAAGDQAAFRLVGHRGFVRVNPRSDRFHTLSFHHVELWCADATSAAGRFSFGLGAPLAARSDLSTGNSAHASLLLRSGSLAFLFTAPYAHGVDAATASLPSFSAPAARSFAADHGLAVRAIGLRVADAEDAFRASVAAGARPAFKPVELGLGFRLAEVELYGDVVLRYVSYPDAEDAPFLPGFENVNNPGALNYGLRRFDHIVGNVPELAPVAAYVAGFTGFHEFAEFTAEDVGTAESGLNSMVLANNSETVLIPLNEPVHGTKRRSQIQTFLDHNGGPGVQHIALASDDVLRTLREMQARSAMGGFEFMAAPPPDYYEGVRRRAGDVLSEAQIKECQELGVLVDRDDQGVLLQIVTKPVGDRQTLFLEIIQRIGCMEKDEQGQEYQKGGCGGFGKGNFSQLFKSIEDYEKSLESKQAAAVQGS
modifications: SiHPPDm-F372V Amino Acid Sequence

Tested on: Arabidopsis thaliana T1 plants
Test: Topramezone tolerance of transgenic Arabidopsis thaliana T1 plants (pesticide damage grade by bleached leaf area, score, resistance evaluation)
Type: in vivo
Outline: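 Eighteen days after sowing, wild-type and HPPD-transgenic T1 Arabidopsis receive a topramezone spray at 1×, 2× or 4× field rate (25–100 g ai/ha) or water. Seven days later each plant is graded by its proportion of bleached leaf area.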

[1] = topramezone 25 g ai/ha (1x), HPPD F372V mutants, Table 7
[2] = topramezone 100 g ai/ha (4x), HPPD F372V mutants, Table 7

| Molecule | Resistance evaluation [1] | Resistance evaluation [2] | Resistance evaluation (topramezone 25 g ai/ha (1x), HPPD F372G mutants, Table 6) | Resistance evaluation (topramezone 100 g ai/ha (4x), HPPD F372G mutants, Table 6) |
| --- | --- | --- | --- | --- |
| B1 | Poorly resistant | Non-resistant |  |  |
| B2 | Moderately resistant | Non-resistant |  |  |
| B3 | Highly resistant | Poorly resistant |  |  |
| B4 | Poorly resistant | Non-resistant |  |  |
| B5 | Highly resistant | Poorly resistant |  |  |
| B6 |  |  | Highly resistant | Moderately resistant |
| B7 | Moderately resistant | Poorly resistant |  |  |
